Measured values published in US20240060046A1.

Biological target: CD20 on CD20+ human Burkitt's lymphoma cell lines (Ramos, Raji) (human) (UniProt P11836)
Experiment: cell-based or functional assay

Chain of UniProt P11836 (P11836 whole entry): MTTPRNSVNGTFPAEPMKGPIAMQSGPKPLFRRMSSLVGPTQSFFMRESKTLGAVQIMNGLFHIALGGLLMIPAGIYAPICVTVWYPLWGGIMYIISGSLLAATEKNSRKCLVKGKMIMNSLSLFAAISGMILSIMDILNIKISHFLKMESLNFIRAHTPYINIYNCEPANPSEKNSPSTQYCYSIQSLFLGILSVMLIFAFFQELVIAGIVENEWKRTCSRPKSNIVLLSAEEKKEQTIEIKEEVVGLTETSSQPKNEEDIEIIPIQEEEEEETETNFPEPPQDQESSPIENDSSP

lysis of Raji target cells at the end of 72 hour co-culture, AB-101 combined with rituximab, E:T 1:1: 90%
lysis of Ramos target cells at the end of 72 hrs co-culture, AB-101 combined with rituximab, E:T 1:1: 80%
Substance: Rituximab (Mabthera or Rituxan) (antibody)
Viable Raji cells (%), long-term ADCC, AB-101 + RTX, 24 hrs (mean of 9 AB-101 batches): 23.9%
Viable Raji cells (%), long-term ADCC, AB-101 + RTX, 48 hrs (mean of 9 AB-101 batches): 11.7%
Viable Raji cells (%), long-term ADCC, AB-101 + RTX, 72 hrs (mean of 9 AB-101 batches): 10.1%
Viable Ramos cells (%), long-term ADCC, AB-101 + RTX, 24 hrs (mean of 9 AB-101 batches): 47.6%
Viable Ramos cells (%), long-term ADCC, AB-101 + RTX, 48 hrs (mean of 9 AB-101 batches): 28.1%
Viable Ramos cells (%), long-term ADCC, AB-101 + RTX, 72 hrs (mean of 9 AB-101 batches): 19%
